Reference: patent publication US20050107296A1 (INSTITUT DES VAISSEAUX ET DU SANG, published 2005)

Target: T1, soluble HGF-R, chimeric fusion protein (HGF-R/IgG) comprising the HGF-binding portion of the extracellular … (UniProt P08581 25-932, limits assumed)
T1 construct: also called c-Met; not shown: a portion of IgG
Assay: SPR (BIAcore 2000), N immobilized on the sensor chip, soluble HGF-R/IgG injected at three different doses

T1 sequence (P08581 25-932 limits assumed, change not shown): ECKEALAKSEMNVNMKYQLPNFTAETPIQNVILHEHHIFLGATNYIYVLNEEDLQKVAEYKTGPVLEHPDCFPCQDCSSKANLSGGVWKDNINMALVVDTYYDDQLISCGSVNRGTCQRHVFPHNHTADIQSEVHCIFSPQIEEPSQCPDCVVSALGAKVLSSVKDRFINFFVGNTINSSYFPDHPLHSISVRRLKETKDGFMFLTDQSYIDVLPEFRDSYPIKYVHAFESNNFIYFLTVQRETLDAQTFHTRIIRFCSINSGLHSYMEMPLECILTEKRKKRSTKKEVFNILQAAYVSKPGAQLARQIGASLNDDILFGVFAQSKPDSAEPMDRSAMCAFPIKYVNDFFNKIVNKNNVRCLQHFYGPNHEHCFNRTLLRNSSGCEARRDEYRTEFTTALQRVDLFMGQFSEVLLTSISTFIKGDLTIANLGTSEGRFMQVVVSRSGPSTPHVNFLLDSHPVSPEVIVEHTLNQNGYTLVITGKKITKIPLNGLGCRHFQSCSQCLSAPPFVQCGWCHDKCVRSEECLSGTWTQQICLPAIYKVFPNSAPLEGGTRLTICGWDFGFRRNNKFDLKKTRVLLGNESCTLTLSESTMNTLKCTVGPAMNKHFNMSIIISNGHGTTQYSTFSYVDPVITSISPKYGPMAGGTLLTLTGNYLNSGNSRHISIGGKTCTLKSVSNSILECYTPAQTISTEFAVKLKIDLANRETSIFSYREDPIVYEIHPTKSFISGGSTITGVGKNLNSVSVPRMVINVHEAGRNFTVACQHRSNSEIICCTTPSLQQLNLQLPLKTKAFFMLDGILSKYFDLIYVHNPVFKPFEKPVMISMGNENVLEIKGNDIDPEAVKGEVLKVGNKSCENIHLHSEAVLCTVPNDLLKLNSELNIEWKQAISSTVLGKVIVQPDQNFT

B1: peptide N derived from the HGF α-chain (hairpin-loop domain of HGF, N-terminal Gln instead of PyrGlu) (peptide)
chain: QRKRRNTIHEFKKSAKTTLIKIDPALKIKTKKVNTADQCANRCTRNKGLPFTCKAFVFDKARKQCLWFPFNSMSSGVKKEFGHEFDLYENKDYIRN
notes: Expressed in E. coli and purified; In Assay 6 it was immobilized on the BIAcore sensor chip; also called Ex 1
B1: no binding.
